Consider eleven molecules from PMC9352664 (Nature Communications, 2022).

In experiment [1] the target is HiSiaQM (wild type) (Haemophilus influenzae) (UniProt P44543). In words: single-molecule TIRF microscopy on solid-supported bilayers; HiSiaQM in DOPC solid-supported bilayers, AF-647-labelled P-domain without sialic acid; 20 mM HEPES, 150 mM NaCl, pH 7.4.
Experiment [2] addresses T1, HiSiaP (P-domain) (Haemophilus influenzae, UniProt P44542, D81R).
T1 construct: gene siaP
The conditions noted are these: read-out: affinity; 50 mM Tris, 50 mM NaCl, pH 8; one approximate value printed for all three mutants.

Experiment [3] addresses T2, HiSiaP (P-domain) (Haemophilus influenzae, UniProt P44542, S83R).
T2 construct: gene siaP
The conditions noted are these: read-out: affinity; 50 mM Tris, 50 mM NaCl, pH 8; one approximate value printed for all three mutants.

Experiment [4] has as its target T3, HiSiaP (P-domain) (Haemophilus influenzae, UniProt P44542, E195R).
T3 construct: gene siaP
The conditions noted are these: read-out: affinity; 50 mM Tris, 50 mM NaCl, pH 8; one approximate value printed for all three mutants.

The target in experiment [5] is HiSiaQM K273C-biotin (Haemophilus influenzae) (UniProt P44543). In words: SPR.
Experiment [6] has as its target T4, HiSiaQM K273C-biotin (Haemophilus influenzae, UniProt P44543, Maleimide-PEG2-biotin on the introduced cysteine K273C).
T4 chain: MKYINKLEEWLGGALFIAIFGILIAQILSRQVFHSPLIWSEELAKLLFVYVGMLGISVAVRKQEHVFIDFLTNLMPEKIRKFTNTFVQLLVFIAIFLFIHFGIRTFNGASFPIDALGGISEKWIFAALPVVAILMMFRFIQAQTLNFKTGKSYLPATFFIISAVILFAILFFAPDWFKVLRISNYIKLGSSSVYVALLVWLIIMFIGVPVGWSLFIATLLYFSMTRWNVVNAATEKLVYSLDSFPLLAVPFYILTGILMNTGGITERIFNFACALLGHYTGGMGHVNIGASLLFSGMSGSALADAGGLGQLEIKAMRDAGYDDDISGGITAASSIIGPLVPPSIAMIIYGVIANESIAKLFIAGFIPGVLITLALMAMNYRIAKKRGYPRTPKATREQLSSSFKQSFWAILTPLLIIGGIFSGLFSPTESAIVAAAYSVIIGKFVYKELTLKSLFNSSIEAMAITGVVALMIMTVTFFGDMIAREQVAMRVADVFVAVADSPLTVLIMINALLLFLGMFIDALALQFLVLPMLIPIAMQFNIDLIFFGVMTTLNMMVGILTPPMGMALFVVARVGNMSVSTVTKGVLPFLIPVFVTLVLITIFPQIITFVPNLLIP

The target in experiment [7] is T5, HiSiaQM (wild type) (Haemophilus influenzae, UniProt P44543).
T5 construct: also called QM-domains; native QM-domains
In words: single-molecule TIRF microscopy on solid-supported bilayers; HiSiaQM in DOPC solid-supported bilayers pre-incubated with unlabelled VHHQM3 for at least 30 min, then AF-647-labelled P-domain added. The conditions noted are these: both partners purified.

In experiment [8] the target is T5, HiSiaQM (wild type). In words: single-molecule TIRF microscopy on solid-supported bilayers; HiSiaQM in DOPC solid-supported bilayers stained with VHHQM3-AF-555, incubated at least 30 min, bilayer washed 5 times. Conditions: both partners purified.

Positions count from the first letter of the chain named. Numbers in names are those of the source.

Take “HiSiaP K254C labelled with AF-647 (from UniProt P44542) (natural protein; other documents disagree on this pair)”: in experiment [1], the reduction of P–QM binding events in the absence of sialic acid was determined as 50%.

Consider `CC(=O)N[C@H]1[C@H]([C@H](O)[C@H](O)CO)OC(O)(C(=O)O)C[C@@H]1O` (stereo partly shown) [sialic acid], for which the Kd in experiment [2], in experiment [3] and in experiment [4] was ~50 nM in each case.

As for “HiSiaP (wild type) (from UniProt P44542 24-329) (natural protein)”, in experiment [5], the Kd was 1000 nM.

B1: VHHQM4 (VHH)
VHH: QVQLVETGGGLVQPGGSLRLSCAASAFTYDNYGIGWFRQAPGKEREGVSCISSSGGTVNYADSVKGRFTISRDNAKNTVYLQMNSLKPEDTAVYYCAALKYGSSCRFLRAANFGSWGQGTRVTVSS
Take B1: the Kd in experiment [6] amounted to 10.4 nM.

B2: VHHQM9 (VHH)
VHH: QLQLVESGGRSVQAGGSLRLSCAASGRAFTMAWFRQAPGKEREFVAARTWPVEYGYYADSVKDRFTISRDNAKNILYLQMTSLHPEDTAMYYCAASTANRDSVNVRFSDQYAYWGPGTQVTVSV
Turning to B2, the Kd in experiment [6] was determined as 0.36 nM.

B3: VHHQM2 (VHH)
VHH: QVQLVESGGGLVQPGESLRLSCAASGSTFSSYGMSWVRQAPRKGPEWVSSISASGTLTRYADFVKGRFTVSRDNAKNTLFLQMNSLKPEDTALYYCARGGAPSVVYNRHDWGQGTQVTVSS
In experiment [6], B3 had a Kd of 9.83 nM.

B4: VHHQM5 (VHH)
VHH: QVQLVESGGGLVQPGGSLRLSCATSRFTLNYYDIGWFRQAPGKEREGVSCITSSGGNTNYADSVKGRFTISRDNAKNTVYLQMNSLKPEDTAIYYCAAAKYGSAWPCSSMPLRDFGSWGQGTQVTVSS
Take B4: the Kd in experiment [6] was determined as 1.06 nM.

B5: VHHQM7 (VHH)
VHH: QVQLVESGGGLVQPGGSLRLSCAASGFTLSYHAIGWFRQAPGKEREGVSFISSSGSSTNYADSVKGRFTISKDNAKNTVYLQMDSLKPEDTAVYYCARSAAYGSSWLNPSRYDYWGQGTQVTVSS
For B5, the Kd in experiment [6] worked out at 4.88 nM.

B6: VHHQM6 (VHH)
VHH: QLQLVESGGGLVQAGGSLRLSCTASRVTLNYHDIGWFRQAPGKEREGVSYISSSGGSTKYADFVKGRFTISRDNAKNTVYLQMNSLKPEDTAVYYCARSAAYGSSWLNPSRYDYWGQGTQVTVSS
In experiment [6], B6 gave a Kd of 0.64 nM.

B7: VHHQM3 (VHH)
VHH: B6 VHH with S7T, A14P, N30D, K59N, F63S, A100S
For B7, the binding result in experiment [7] is on record as “binds”.

B8: VHHQM3 S85C labelled with AF-555 (VHH)
VHH: B6 VHH with S7T, A14P, N30D, K59N, F63S, S85C, A100S
As for B8, the binding result in experiment [8] was “binds”.
